These results are taken from patent US20210087270A1 (INNATE PHARMA, published 2021).

B1: antibody 10G5 (antibody, V domains shown)
VH: QVQLQQSAAELARPGASVKMSCKASGYTFTSYTMHWVKQRPGQGLEWIGYINPSSGYTENNRKFKDKTTLTADKSSSTAYMQLSSLTSEDSAVYYCARLGKGLLPPFDYWGQGTTLTVSS
VL: DIQMTQSPASLSVSVGETVTITCRASENIYSNLAWYQQKQGKSPQLLVYAATNLADGVPSRFSGSGSGTQYSLKINSLQSEDFGSYYCQHFWGTPYTFGGGTKLEIK
B2: antibody 13H1 (antibody, V domains shown)
VH: EVQLQQSGPELVKPGASMKISCKASHYSFIGYTMNWVKQRHGKNLEWIGLINPYNGDTTYNQKFKGKASLTVDKSSSTAYMEILSLTSEDSAVYYCARENWGYPYAMDYWGQGTSVTVS
VL: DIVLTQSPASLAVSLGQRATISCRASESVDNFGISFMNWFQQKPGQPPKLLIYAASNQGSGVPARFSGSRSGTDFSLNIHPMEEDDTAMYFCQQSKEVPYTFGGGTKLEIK
B3: antibody 1E2 (antibody, V domains shown)
VH: QVQLQQSGAELVRPGVSVKISCKGSGYTFTDYAMNWVKQSHAKSLEWIGVISTYYGDANYNQKFKGKATMTVDKSSSTAYMELARLTSEDSAIYYCALIYYDYDGSYWGQGTTLTVS
VL: DVVMTQTPLSLPVSLGDQASISCRSSQSLVHSNGNTYLHWYLQKPGQSPKLLIYKVSNRFSGVPDRFSGSGSGTDFTLKISRVEAEDLGVYFCSQSTHVPPYTFGGGTKLEIK
B4: antibody 20E9 (antibody, V domains shown)
VH: QVQLQQSGAEVARPGASVKLSCKSSGFTFTTYWMQWVKQRPGQGLEWIGAIYPGDGDTRYTQKFKGKATLTADKSSITAYMQLSSLASEDSAVYYCARRGDYGNYGMDYWGQGTSVTVSS
VL: DVLMTQTPLSLPVSLGDQASISCRSSQSIVHSNGNTYLEWYLQKPGQSPKLLIYKVSNHFSGVPDRFSGSGSGTDFTLKISRVEAEDLGVYYCFQGSHVPPTFGGGTKLEIK
B5: antibody 1C3 (antibody, V domains shown)
VH: QVQLQQSGAELARPGASVKLSCKASGYTFTSYWMQWVKQRPGQGLEWIGAIYPGDGDTRYTQKFKGKATLTADKSSSTAYMQLSSLASEDSAVYYCARRYDGYYHFDYWGQGTTLTVS
VL: DIVMTQSPSSLAVTAGEKVTMSCKSSQSLLWSVNQKNYLSWYQQKQRQPPKLLIYGASIRESWVPDRFTGSGSGTDFTLTISNVHAEDLAVYYCQHNHGSFLPLTFGSGTKLEIK
B6: antibody 10F6 (antibody, V domains shown)
VH: QIQLVQSGPELKKPGETVRISCKASGYTFTIAGMQWVQKMPGKGLKWIGWINTHSGVPKYAEDFKGRFAFSLETSANIAYLQISNLKNEDTATYFCARGGDEGVMDYWGQGTSVTVS
VL: DIVMTQSHKFMSTSVGDRVSITCKASQDVSTAVAWYHQKPGQSPKLLIYWASTRHTGVPDRFSGSGSGTDYTLTISALQAEDLALYYCQQHYNTPWTFGGGTKLEIK
notes: Detected with goat anti-mouse antibody

The target in one assay is T1, KIR3DL1 (CD158e1) (UniProt P43629 22-444, limits assumed).
T1 construct: also called closely related KIR3DL1
T1 sequence (P43629 22-444 limits assumed): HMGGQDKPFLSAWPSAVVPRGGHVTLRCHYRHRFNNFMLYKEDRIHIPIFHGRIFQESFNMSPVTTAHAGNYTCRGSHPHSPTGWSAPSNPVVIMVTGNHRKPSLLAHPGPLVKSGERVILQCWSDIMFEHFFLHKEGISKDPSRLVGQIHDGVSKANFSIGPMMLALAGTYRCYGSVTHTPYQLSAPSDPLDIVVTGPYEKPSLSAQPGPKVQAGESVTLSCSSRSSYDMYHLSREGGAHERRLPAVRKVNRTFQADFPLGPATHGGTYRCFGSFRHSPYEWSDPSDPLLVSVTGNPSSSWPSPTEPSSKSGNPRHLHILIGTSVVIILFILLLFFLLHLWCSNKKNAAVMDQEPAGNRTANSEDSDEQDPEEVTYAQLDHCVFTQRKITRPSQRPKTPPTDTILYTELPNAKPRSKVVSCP
Description: hybridoma screening (flow cytometry, incl. HEK-293T/KIR3DL1 Domain 0-eGFP). How it is done:
Antibodies which bind KIR3DL2 but not closely related KIR3DL1 were generated by immunizing mice with recombinant KIR3DL2-Fc fusion protein, described in US patent publication number US-2015-0232556-A1. Supernatant (SN) of the growing hybridomas were tested by flow cytometry on Sezary Syndrome cell lines (HUT78, COU-L) and HEK-293T/KIR3DL2 Domain 0-eGFP. Potentially interesting hybridomas selected from the initial screening were cloned by limiting dilution techniques in 96-wells plates. The secondary screen involved selection of hybridomas of interest by testing supernatants of the subclones by flow cytometry on HUT78, COU-L, HEK-293T/KIR3DL1 Domain 0-eGFP and HEK-293T/KIR3DL2 Domain 0-eGFP. Positive subclones were injected into mice to produce ascitis and antibodies of interest were purified before being tested in a Biacore assay using rec KIR3DL2 chips, followed by various assays formats based on binding to human KIR3DL2-expressing cells.
(In general: A flow cytometer gives signals particle by particle.)
For B1, the binding result is on record as “no binding”.

In the next assay the target is T2, human KIR3DL2 (CD158k), wild type, at the cell surface (human, UniProt P43630 22-455).
T2 construct: also called WTaKIR3DL2; un-mutated wild type KIR3DL2
T2 sequence (P43630 22-455 E158D): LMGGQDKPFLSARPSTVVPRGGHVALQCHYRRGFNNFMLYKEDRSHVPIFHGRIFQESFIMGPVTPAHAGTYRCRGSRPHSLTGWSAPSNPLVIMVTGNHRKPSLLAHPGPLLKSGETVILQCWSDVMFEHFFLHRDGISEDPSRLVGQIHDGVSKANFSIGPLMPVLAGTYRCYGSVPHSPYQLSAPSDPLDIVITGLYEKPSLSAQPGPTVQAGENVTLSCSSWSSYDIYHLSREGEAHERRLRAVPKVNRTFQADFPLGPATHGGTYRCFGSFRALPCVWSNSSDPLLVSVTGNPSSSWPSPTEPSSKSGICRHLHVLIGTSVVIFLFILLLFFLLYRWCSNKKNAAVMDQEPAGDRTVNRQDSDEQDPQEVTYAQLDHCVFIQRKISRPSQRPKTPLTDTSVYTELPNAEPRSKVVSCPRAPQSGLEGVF
Description: fluoro-microscopy on HUT78 cells, 10 µg/ml, goat anti-mouse Alexa594. How it is done: Internalization of antibodies 10F6, 2B12, 18C6, 9E10, 10G5, 13H1, 4B5, 5H1, 1E2, 1C3 and 20E9, as well as antibody AZ158 (an anti-domain 0 mAb as comparator) and other anti-D1 antibodies as disclosed in PCT applications WO2014/044686 and WO2014/044681 were assessed by fluoro-microscopy using the HUT78 SS cell line.
Hut-78 cells were incubated during 1H at 4° C. with 10 μg/ml of the different antibodies. After this incubation cells were either fixed (t=OH) or incubated for 2H at 37° C. Cells incubated for 2H were then fixed and stained. Antibodies were stained using goat anti-mouse antibodies coupled to Alexa594 (Invitrogen, A11032). […] Pictures were acquired using an Apotome device (Zeiss) and analyzed using the Axiovision software.
As to B2, the binding result is given as “binds”. Same read-out and setting: next, B3: “binds”; B4: “binds”; B5: “binds”. The same measure, in the same setting: the result for B6 reads “binds”.
